We go through 91 sequences from the supplement of paper PMC9112550, “Optimization of the antimicrobial peptide Bac7 by deep mutational scanning” (BMC Biology, 2022).

The data set relates to Escherichia coli TOP10. Briefly: shrunken log2 fold change of peptide-encoding DNA abundance (4.5 h post-induction vs induction); higher = less antimicrobial activity (less host growth inhibition). The conditions noted are these: time post-induction: 4.5 h; library: site-saturation at positions 5, 18, 19, 20.
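Also: peptides expressed intracellularly from a pBAD plasmid library in pooled LB shake-flask culture, induced with 0.3% L-arabinose, DNA abundance read by NGS, three biological replicates, DESeq2 with apeglm shrinkage.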

As to RRIRPRPPRLPRPRPRPAFNPRP, the “shrunken log2 fold change” value was -0.0727. As to RRIRLRPPRLPRPRPRPATPPRP, the “shrunken log2 fold change” value stood at 1.05. The figure for RRIRYRPPRLPRPRPRPFIGPRP is -1.58; for RRIRFRPPRLPRPRPRPFPHPRP it is -0.142. In the case of RRIRIRPPRLPRPRPRPRSNPRP, the “shrunken log2 fold change” value is -0.0529. Regarding RRIRARPPRLPRPRPRPYEIPRP, the “shrunken log2 fold change” value was -0.059.

In the case of RRIRYRPPRLPRPRPRPYPVPRP, the “shrunken log2 fold change” value was determined as 0.011. Consider RRIRERPPRLPRPRPRPWPKPRP, for which the “shrunken log2 fold change” value was -0.102. As for RRIRLRPPRLPRPRPRPRHMPRP, the “shrunken log2 fold change” value is -0.287.

Take RRIRLRPPRLPRPRPRPHQFPRP: the “shrunken log2 fold change” value turned out to be 0.0562.

On to RRIRPRPPRLPRPRPRPYHDPRP, for which the “shrunken log2 fold change” value is -0.0378. In the case of RRIRQRPPRLPRPRPRPLDQPRP, the “shrunken log2 fold change” value was -0.635. As to RRIRIRPPRLPRPRPRPVWYPRP, the “shrunken log2 fold change” value is -0.84.

Consider RRIRCRPPRLPRPRPRPSSDPRP, for which the “shrunken log2 fold change” value was -0.162. As for RRIRSRPPRLPRPRPRPCIVPRP, the “shrunken log2 fold change” value was -1.05.

Regarding RRIRLRPPRLPRPRPRPPRQPRP, the “shrunken log2 fold change” value came to 0.688. In the case of RRIRLRPPRLPRPRPRPTELPRP, the “shrunken log2 fold change” value was -0.118. The figure for RRIRQRPPRLPRPRPRPLPKPRP is -0.226; for RRIRDRPPRLPRPRPRPGLNPRP it is 0.184; for RRIRCRPPRLPRPRPRPWMHPRP it is -0.621.

Take RRIRPRPPRLPRPRPRPGDDPRP: the “shrunken log2 fold change” value is -0.292. As to RRIRGRPPRLPRPRPRPDPSPRP, the “shrunken log2 fold change” value was found to be 0.414. Consider RRIRSRPPRLPRPRPRPWKNPRP, for which the “shrunken log2 fold change” value was -0.0508. Turning to RRIRNRPPRLPRPRPRPLVVPRP, the “shrunken log2 fold change” value was -0.117. For the sequence RRIRCRPPRLPRPRPRPFYYPRP, the “shrunken log2 fold change” value is -0.97. Regarding RRIRRRPPRLPRPRPRPRTNPRP, the “shrunken log2 fold change” value worked out at 0.482.

Consider RRIRMRPPRLPRPRPRPWGLPRP, for which the “shrunken log2 fold change” value stood at 0.0219. For RRIRARPPRLPRPRPRPHVTPRP, the “shrunken log2 fold change” value was found to be 0.0281.

With RRIRLRPPRLPRPRPRPLDIPRP, the “shrunken log2 fold change” value was -0.15. In the case of RRIRGRPPRLPRPRPRPWFYPRP, the “shrunken log2 fold change” value is -0.4.

Regarding RRIRNRPPRLPRPRPRPLLWPRP, the “shrunken log2 fold change” value came out at 0.369. In the case of RRIRCRPPRLPRPRPRPNIHPRP, the “shrunken log2 fold change” value is -0.607. To RRIRHRPPRLPRPRPRPGEFPRP belongs -0.00759; to RRIRIRPPRLPRPRPRPTMDPRP, -0.118. The figure for RRIRGRPPRLPRPRPRPIQCPRP is 0.0816; for RRIRNRPPRLPRPRPRPMIFPRP it is -0.287. As to RRIRLRPPRLPRPRPRPTWEPRP, the “shrunken log2 fold change” value came out at 0.0313. Turning to RRIRFRPPRLPRPRPRPLNLPRP, the “shrunken log2 fold change” value is -0.542. In the case of RRIRKRPPRLPRPRPRPLLAPRP, the “shrunken log2 fold change” value amounted to 0.833. As for RRIRGRPPRLPRPRPRPFMNPRP, the “shrunken log2 fold change” value was -0.116. As for RRIRARPPRLPRPRPRPNDPPRP, the “shrunken log2 fold change” value was 0.104.

As to RRIRNRPPRLPRPRPRPCLYPRP, the “shrunken log2 fold change” value was 0.0767. Regarding RRIRSRPPRLPRPRPRPMHHPRP, the “shrunken log2 fold change” value was -0.0364. For RRIRIRPPRLPRPRPRPLQRPRP, the “shrunken log2 fold change” value was -0.106. As for RRIRFRPPRLPRPRPRPSFQPRP, the “shrunken log2 fold change” value was -0.145. Regarding RRIRRRPPRLPRPRPRPQNVPRP, the “shrunken log2 fold change” value turned out to be 0.0718. Regarding RRIRKRPPRLPRPRPRPIQNPRP, the “shrunken log2 fold change” value is 0.151. As for RRIRRRPPRLPRPRPRPLAHPRP, the “shrunken log2 fold change” value was found to be 0.223. RRIRQRPPRLPRPRPRPARGPRP: the “shrunken log2 fold change” value stood at 0.126. The figure for RRIRYRPPRLPRPRPRPSENPRP is -0.235; for RRIRYRPPRLPRPRPRPGYCPRP it is -0.235. For the sequence RRIRPRPPRLPRPRPRPCTIPRP, the “shrunken log2 fold change” value is -0.536. For RRIRARPPRLPRPRPRPDEVPRP, the “shrunken log2 fold change” value came to 0.446. The figure for RRIRPRPPRLPRPRPRPYTFPRP is -0.504; for RRIRRRPPRLPRPRPRPMTLPRP it is -0.142. As to RRIRSRPPRLPRPRPRPTFVPRP, the “shrunken log2 fold change” value is -0.15.

As to RRIRARPPRLPRPRPRPTDYPRP, the “shrunken log2 fold change” value was -0.0499. RRIRCRPPRLPRPRPRPWRCPRP: the “shrunken log2 fold change” value turned out to be 0.486. With RRIRYRPPRLPRPRPRPTRMPRP, the “shrunken log2 fold change” value came out at 0.09. RRIRKRPPRLPRPRPRPREKPRP: the “shrunken log2 fold change” value was -0.107. For RRIRGRPPRLPRPRPRPNPIPRP, the “shrunken log2 fold change” value was determined as 0.0839. To RRIRIRPPRLPRPRPRPTHCPRP belongs -0.00414; to RRIRWRPPRLPRPRPRPNINPRP, -0.429; to RRIRVRPPRLPRPRPRPDMHPRP, -0.107. Take RRIRWRPPRLPRPRPRPFNCPRP: the “shrunken log2 fold change” value was -0.118. For the sequence RRIRWRPPRLPRPRPRPIAFPRP, the “shrunken log2 fold change” value is 0.171. Turning to RRIRYRPPRLPRPRPRPLPLPRP, the “shrunken log2 fold change” value is -0.197. Consider RRIRNRPPRLPRPRPRPYGKPRP, for which the “shrunken log2 fold change” value was -0.0718. Turning to RRIRLRPPRLPRPRPRPQWTPRP, the “shrunken log2 fold change” value was 0.107. RRIRQRPPRLPRPRPRPFIGPRP: the “shrunken log2 fold change” value is -0.281. Regarding RRIRGRPPRLPRPRPRPFESPRP, the “shrunken log2 fold change” value came to 0.0306. To RRIRIRPPRLPRPRPRPGFAPRP belongs 0.282; to RRIRKRPPRLPRPRPRPFMPPRP, -0.0694; to RRIRHRPPRLPRPRPRPLSDPRP, -0.0615. Regarding RRIRKRPPRLPRPRPRPRHGPRP, the “shrunken log2 fold change” value is -0.0248. For RRIRSRPPRLPRPRPRPMAFPRP, the “shrunken log2 fold change” value was -0.0285. To RRIRCRPPRLPRPRPRPDHRPRP belongs -0.106. On to RRIRLRPPRLPRPRPRPFHVPRP, for which the “shrunken log2 fold change” value was -0.0193. RRIRKRPPRLPRPRPRPKWLPRP: the “shrunken log2 fold change” value is -0.0433. The figure for RRIRFRPPRLPRPRPRPGTLPRP is -0.422; for RRIRERPPRLPRPRPRPYKKPRP it is 0.0359. To RRIRVRPPRLPRPRPRPNCSPRP belongs 0.0892. RRIRARPPRLPRPRPRPMPDPRP: the “shrunken log2 fold change” value is 0.74. The figure for RRIRARPPRLPRPRPRPPVQPRP is 0.227; for RRIRKRPPRLPRPRPRPWWPPRP it is 0.0304; for RRIRDRPPRLPRPRPRPTIGPRP it is -0.0292. For RRIRLRPPRLPRPRPRPTNCPRP, the “shrunken log2 fold change” value was -0.0927. To RRIRKRPPRLPRPRPRPTNWPRP belongs 0.689; to RRIRERPPRLPRPRPRPDFTPRP, -0.233. The figure for RRIRRRPPRLPRPRPRPDMIPRP is -0.0332; for RRIRRRPPRLPRPRPRPAECPRP it is -0.00699.
